{
  "source": "patent US20250197451A1",
  "about": "(CAPITAL MEDICAL UNIVERSITY SCHOOL OF STOMATOLOGY, published 2025);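 also: 100% is the highest background-corrected spot optical density on the membrane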",
  "data": [
    {"target": "T1, biotin-labelled EZH2 protein (UniProt Q15910 1-746, limits assumed, biotin label (EZ-link NHS-PEO4-Biotinylation kit))", "T1 construct": "Probe in solution (1 ug/ml) on the KDM2B peptide microarray; also called NHS-PEO4-Biotinylation-labelled EZH2 protein; recombinant protein", "T1 sequence (Q15910 whole entry)": "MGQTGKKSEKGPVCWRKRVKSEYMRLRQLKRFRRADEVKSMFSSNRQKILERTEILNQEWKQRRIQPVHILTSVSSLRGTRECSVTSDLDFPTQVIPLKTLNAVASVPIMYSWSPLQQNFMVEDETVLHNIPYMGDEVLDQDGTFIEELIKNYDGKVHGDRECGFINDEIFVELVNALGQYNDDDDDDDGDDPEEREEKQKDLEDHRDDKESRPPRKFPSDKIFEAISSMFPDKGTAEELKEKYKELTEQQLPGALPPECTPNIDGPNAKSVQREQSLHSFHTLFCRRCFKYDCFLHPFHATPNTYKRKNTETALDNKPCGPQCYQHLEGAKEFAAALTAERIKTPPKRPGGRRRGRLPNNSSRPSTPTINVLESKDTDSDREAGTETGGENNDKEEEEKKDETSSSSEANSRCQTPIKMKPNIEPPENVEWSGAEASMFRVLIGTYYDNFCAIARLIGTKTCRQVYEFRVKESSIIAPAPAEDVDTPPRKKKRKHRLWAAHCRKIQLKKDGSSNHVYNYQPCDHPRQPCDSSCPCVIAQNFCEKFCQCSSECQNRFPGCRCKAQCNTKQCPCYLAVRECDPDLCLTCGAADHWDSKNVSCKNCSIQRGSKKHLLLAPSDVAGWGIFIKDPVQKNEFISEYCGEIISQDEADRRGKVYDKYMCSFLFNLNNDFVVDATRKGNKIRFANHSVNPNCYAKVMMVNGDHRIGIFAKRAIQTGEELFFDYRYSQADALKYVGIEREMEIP", "test": "KDM2B peptide array probed with biotin-EZH2 1 ug/ml, SA-HRP/ECL; Remark: noise", "units": {"Intensity (%)": "%"}, "protocol": "(§1) After blocking, the polypeptide microarray was incubated with biotin-labeled target protein for hybridization, visualized with the chemical chromogenic substrate and imaged using a Chempchemi digital imager. The image of colored polypeptide microarray was analyzed for the optical density of the colored points. Particularly, the optical density of each colored point was calculated using the optical density of the respective surrounding background as a reference for background correction. The highest optical density value of the colored point on membrane was set to 100%, and the optical density value of the remaining colored points was converted into percentages relative to the highest value. The points with an optical density percentage of more than 30% on the polypeptide membrane and also with an optical density percentage of less than 30% on the negative membrane were defined as positive colored points.\n(§2) For the hybridization experiment, a solution of NHS-PEO4-Biotinylation-labelled EZH2 protein (1 μg/ml) was used for the hybridization of the polypeptide microarray. Streptavidin-HRP was used to amplify the reaction signal according to the experimental procedure and conditions described above, and the time of color development was 5 minutes.", "values": [
      {"binder": "EEAPRRRSDEHSKKV", "note": "[peptide 155]", "Intensity (%)": 0},
      {"binder": "LNGTPRELRHQLGPS", "note": "[peptide 201]", "Intensity (%)": 0.18},
      {"binder": "MGGSAEDHPPRKRHA", "note": "[peptide 2]", "Intensity (%)": 0},
      {"binder": "RVISRPPPSVSPPKC", "note": "[peptide 205]", "Intensity (%)": 0.39},
      {"binder": "KDMKKFGGPGRMKQS", "note": "[peptide 127]", "Intensity (%)": 0},
      {"binder": "GKTGKQKRGPGFKYA", "note": "[peptide 146]", "Intensity (%)": 0.01},
      {"binder": "ELSGRKRASSLQTSP", "note": "[peptide 163]", "Intensity (%)": 0},
      {"binder": "PPKTRESDHSRSSSP", "note": "[peptide 181]", "Intensity (%)": 0.3},
      {"binder": "RGFSLEEKLRSQLYQ", "note": "[peptide 14]", "Intensity (%)": 0.07},
      {"binder": "EIVSVRGFSLEEKLR", "note": "[peptide 13]", "Intensity (%)": 0.05},
      {"binder": "RSSSPTAGPSTEGAE", "note": "[peptide 183]", "Intensity (%)": 0},
      {"binder": "LQTSPGSSSHLSPRP", "note": "[peptide 165]", "Intensity (%)": 0},
      {"binder": "ESDHSRSSSPTAGPS", "note": "[peptide 182]", "Intensity (%)": 0.36},
      {"binder": "IQMERHVIRPPPISP", "note": "[peptide 208]", "Intensity (%)": 0},
      {"binder": "HVIRPPPISPPPDSL", "note": "[peptide 209]", "Intensity (%)": 0.32},
      {"binder": "KCNHAGKTGKQKRGP", "note": "[peptide 145]", "Intensity (%)": 0},
      {"binder": "RELRHQLGPSLRSPP", "note": "[peptide 202]", "Intensity (%)": 0.64},
      {"binder": "AMEGKDFNYEYVQRE", "note": "[peptide 18]", "Intensity (%)": 0},
      {"binder": "TAGPSTEGAEGPEEK", "note": "[peptide 184]", "Intensity (%)": 0},
      {"binder": "KRASSLQTSPGSSSH", "note": "[peptide 164]", "Intensity (%)": 0.34},
      {"binder": "RPPGICERPHRFSKG", "note": "[peptide 198]", "Intensity (%)": 0},
      {"binder": "PPISPPPDSLPLDDG", "note": "[peptide 210]", "Intensity (%)": 0}
    ]},
    {"target": "T1, biotin-labelled EZH2 protein", "test": "KDM2B peptide array probed with biotin-EZH2 1 ug/ml, SA-HRP/ECL;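 also: Background-corrected optical density of each spot on the membrane, given as percent of the brightest spot (100%), color developed for 5 minutes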", "units": {"Intensity (%)": "%"}, "protocol": "as §1, §2", "values": [
      {"binder": "HSFNVPMQLRIYEIE", "note": "[peptide 67]", "Intensity (%)": 0},
      {"binder": "LMSVKGCFTDFHIDF", "note": "[peptide 47]", "Intensity (%)": 100},
      {"binder": "RTLSNESEESVKSTT", "note": "[peptide 95]", "Intensity (%)": 0},
      {"binder": "QRIELKQGYTFFIPS", "note": "[peptide 60]", "Intensity (%)": 0.3},
      {"binder": "EWVLSGKQSDIFLGD", "note": "[peptide 56]", "Intensity (%)": 24.6},
      {"binder": "KKTVIYTKCFEFESA", "note": "[peptide 6]", "Intensity (%)": 27.5},
      {"binder": "VKSTTLAVDYPKTPT", "note": "[peptide 97]", "Intensity (%)": 0},
      {"binder": "IDAPRKPSIDGFSSD", "note": "[peptide 79]", "Intensity (%)": 1.13},
      {"binder": "WYHVFRGGKIFWLIP", "note": "[peptide 51]", "Intensity (%)": 0},
      {"binder": "PKAPALRFLKRTLSN", "note": "[peptide 93]", "Intensity (%)": 0},
      {"binder": "VYCVTQRSHLTQEYQ", "note": "[peptide 75]", "Intensity (%)": 0},
      {"binder": "YPFYYEMCWYVLERY", "note": "[peptide 72]", "Intensity (%)": 0.04},
      {"binder": "YTKCFEFESATQRPI", "note": "[peptide 7]", "Intensity (%)": 0},
      {"binder": "GRDRAPKPPTDGSTS", "note": "[peptide 87]", "Intensity (%)": 0},
      {"binder": "QTEATNAIAEMKYPK", "note": "[peptide 43]", "Intensity (%)": 0},
      {"binder": "GCFTDFHIDFGGTSV", "note": "[peptide 48]", "Intensity (%)": 0},
      {"binder": "FWLIPPTLHNLALYE", "note": "[peptide 53]", "Intensity (%)": 0.7},
      {"binder": "MKYPKVKKYCLMSVK", "note": "[peptide 45]", "Intensity (%)": 7.77},
      {"binder": "LALYEEWVLSGKQSD", "note": "[peptide 55]", "Intensity (%)": 0},
      {"binder": "RVERCQRIELKQGYT", "note": "[peptide 59]", "Intensity (%)": 11.4},
      {"binder": "LRFLKRTLSNESEES", "note": "[peptide 94]", "Intensity (%)": 0},
      {"binder": "KQGYTFFIPSGWIHA", "note": "[peptide 61]", "Intensity (%)": 0.85},
      {"binder": "RGGKIFWLIPPTLHN", "note": "[peptide 52]", "Intensity (%)": 0.55},
      {"binder": "TQRPIDRQRYDENED", "note": "[peptide 9]", "Intensity (%)": 0},
      {"binder": "RESMLIDAPRKPSID", "note": "[peptide 78]", "Intensity (%)": 1.74},
      {"binder": "IFLGDRVERCQRIEL", "note": "[peptide 58]", "Intensity (%)": 15.6},
      {"binder": "FHIDFGGTSVWYHVF", "note": "[peptide 49]", "Intensity (%)": 0},
      {"binder": "QRSHLTQEYQRESML", "note": "[peptide 76]", "Intensity (%)": 0},
      {"binder": "HLKEKQTEATNAIAE", "note": "[peptide 42]", "Intensity (%)": 2.03},
      {"binder": "FFIPSGWIHAVYTPV", "note": "[peptide 62]", "Intensity (%)": 2.54},
      {"binder": "EEEEKDEEGEGRDRA", "note": "[peptide 85]", "Intensity (%)": 0},
      {"binder": "GGNILHSFNVPMQLR", "note": "[peptide 66]", "Intensity (%)": 0.54},
      {"binder": "VKKYCLMSVKGCFTD", "note": "[peptide 46]", "Intensity (%)": 100},
      {"binder": "PKPPTDGSTSPTSTP", "note": "[peptide 88]", "Intensity (%)": 0},
      {"binder": "NMWPQHLKEKQTEAT", "note": "[peptide 41]", "Intensity (%)": 0},
      {"binder": "AEKQKKKTVIYTKCF", "note": "[peptide 5]", "Intensity (%)": 97},
      {"binder": "GWIHAVYTPVDSLVF", "note": "[peptide 63]", "Intensity (%)": 1.74},
      {"binder": "SWLEMEEEACDQQPQ", "note": "[peptide 82]", "Intensity (%)": 0},
      {"binder": "KPSIDGFSSDSWLEM", "note": "[peptide 80]", "Intensity (%)": 6.61},
      {"binder": "DEEGEGRDRAPKPPT", "note": "[peptide 86]", "Intensity (%)": 0.03},
      {"binder": "GFSSDSWLEMEEEAC", "note": "[peptide 81]", "Intensity (%)": 7.19},
      {"binder": "PMQLRIYEIEDRTRV", "note": "[peptide 68]", "Intensity (%)": 6.33}
    ]}
  ]
}
